Measured values taken from patent US20040132160A1 (University of Texas, published 2004).

Key:
[1] = target: T1, full-length MURF-1 with C-terminal myc tag (murine, UniProt Q9ERP3 1-366); test: co-immunoprecipitation of 35S-labeled in vitro translated myc-tagged and Flag-tagged MURF-1 with Flag antibody M2
T1 construct: Expressed in transfected cells (Hela, Cos, 293T and others) or translated in vitro with 35S-methionine; also called myc-tagged MURF-1; myc-tagged MURF; not shown: C-terminal myc/HIS tag of vector pcDNA3.1 myc/HIS (Invitrogen)
T1 sequence: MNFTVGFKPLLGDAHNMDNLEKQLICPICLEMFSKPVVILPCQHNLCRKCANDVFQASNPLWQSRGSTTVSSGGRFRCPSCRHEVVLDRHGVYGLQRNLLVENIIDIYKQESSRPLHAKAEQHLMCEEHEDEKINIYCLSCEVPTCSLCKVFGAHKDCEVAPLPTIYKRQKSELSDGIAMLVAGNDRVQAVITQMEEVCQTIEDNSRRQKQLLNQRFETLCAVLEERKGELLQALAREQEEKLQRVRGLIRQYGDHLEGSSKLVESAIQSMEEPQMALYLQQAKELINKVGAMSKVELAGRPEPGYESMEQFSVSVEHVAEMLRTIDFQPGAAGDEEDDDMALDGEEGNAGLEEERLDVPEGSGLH
Source text: (§1) FIGS. 6A-6D—Mapping domains of MURF-1 required for homo-oligomerization. FIG. 6A. Various forms of N-terminal Flag-tagged MURF-1 and full-length C-terminal myc-tagged MURF-1 were in vitro translated in the presence of ³⁵S-methionine and immunoprecipitation performed as described in Material and Methods. The leucine-rich coiled-coil domain mediates homo-oligomerization of MURF-1. FIGS. 6B-D. MURF-1 binds to microtubules in a homo-oligomeric form. Hela Cells were transfected with Flag-tagged full-length MURF alone (FIG. 6B) or in combination with myc-tagged MURF-1 (FIGS. 6C and 6D) and immunofluorescence performed. Flag-tagged MURF-1 forms aggregates in the cytoplasm of the cell. In the presence of myc-tagged MURF-1, the Flag-tagged MURF-1 and myc-tagged MURF-1 are colocalized in filamentous structures in the cell. Identical results were obtained using native MURF-1 lacking an epitope tag.
In vitro transcription/translation was performed as directed by the manufacturer (Promega). Plasmids used were C-terminally myc-tagged full-length MURF-1 and various Flag-tagged deletions of MURF-1. Immunoprecipitations were performed using ³⁵S-methionine-labelled in vitro translation products. Briefly, ³⁵S-methionine-labelled products were incubated with agitation in 1 ml of immunoprecipitation buffer (PBS, 0.5% Triton X-100, 0.25 mM zinc sulphate) at 4° C. for 2 hours. […]

[2] = target: T2, MURF-1 (Muscle RING Finger 1), native protein without epitope tag (murine, UniProt Q9ERP3 1-366); test: immunofluorescence in cotransfected Hela cells, legend of FIGS. 6B-D
T2 construct: 366 amino acid protein, 41 kDa; also called endogenous MURF-1; native MURF-1
T2 sequence: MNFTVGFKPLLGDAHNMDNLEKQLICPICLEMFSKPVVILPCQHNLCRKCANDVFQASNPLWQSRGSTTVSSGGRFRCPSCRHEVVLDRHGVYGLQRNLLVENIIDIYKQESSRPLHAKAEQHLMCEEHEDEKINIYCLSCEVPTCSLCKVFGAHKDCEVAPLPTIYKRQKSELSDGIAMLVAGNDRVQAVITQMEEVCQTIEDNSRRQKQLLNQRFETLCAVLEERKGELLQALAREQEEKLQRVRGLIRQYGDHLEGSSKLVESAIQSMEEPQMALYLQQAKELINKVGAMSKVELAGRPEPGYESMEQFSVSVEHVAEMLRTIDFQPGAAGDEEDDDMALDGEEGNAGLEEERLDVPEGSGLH
Source text: as §1, with “The” for “FIGS. 6A-6D—Mapping domains of MURF-1 required for homo-oligomerization. FIG. 6A. Various forms of N-terminal Flag-tagged MURF-1 and full-length C-terminal myc-tagged MURF-1 were in vitro translated in the presence of ³⁵S-methionine and immunoprecipitation performed as described in Material and Methods. The”
For immunofluorescence, cells were extracted with 1% Triton X-100 in PBS for 1 minute, washed twice in PBS, and fixed for 15 minutes in 3.7% formalin in PBS. Cells were then washed three times in PBS and blocked in PBS containing 3% Bovine Serum Albumin and 0.1% NP40 for 30 minutes. All antibodies were incubated in fresh block solution for 60 minutes at ambient temperature. Myc-tagged versions of MURF-1 were detected using antibody 9E10 (Santa Cruz) at a dilution of 1:250. Flag-tagged versions of MURF-1 were detected using the M2 Flag antibody at a dilution of 1:500 (Kodak). Microtubules were detected using alpha-tubulin antibody at a dilution of 1:2000 (Sigma). Intermediate filaments were visualized using vimentin antibody at a dilution of 1:500 (Sigma). […]

B1: full-length MURF-1 with N-terminal Flag tag (other)
chain: MNFTVGFKPLLGDAHNMDNLEKQLICPICLEMFSKPVVILPCQHNLCRKCANDVFQASNPLWQSRGSTTVSSGGRFRCPSCRHEVVLDRHGVYGLQRNLLVENIIDIYKQESSRPLHAKAEQHLMCEEHEDEKINIYCLSCEVPTCSLCKVFGAHKDCEVAPLPTIYKRQKSELSDGIAMLVAGNDRVQAVITQMEEVCQTIEDNSRRQKQLLNQRFETLCAVLEERKGELLQALAREQEEKLQRVRGLIRQYGDHLEGSSKLVESAIQSMEEPQMALYLQQAKELINKVGAMSKVELAGRPEPGYESMEQFSVSVEHVAEMLRTIDFQPGAAGDEEDDDMALDGEEGNAGLEEERLDVPEGSGLH
notes: Translated in vitro with 35S-methionine for immunoprecipitation, or expressed in Hela cells; also called Flag-tagged MURF-1; Flag-MURF-1; not shown: N-terminal Flag tag (vector pECE-Flag, subcloned into pcDNA3.1)
Q: Which results are given for B1?
A: binding result [1]: binds; binding result [2]: binds
